Results on four molecules are retold here after US20250346679A1 (INVOX PHARMA, published 2025).

First the molecules themselves.
T1: mouse CD137 ligand on DO11.10 cells (mouse, UniProt P41274 1-309)
T1 construct: whole, on cells
T1 sequence (looked up): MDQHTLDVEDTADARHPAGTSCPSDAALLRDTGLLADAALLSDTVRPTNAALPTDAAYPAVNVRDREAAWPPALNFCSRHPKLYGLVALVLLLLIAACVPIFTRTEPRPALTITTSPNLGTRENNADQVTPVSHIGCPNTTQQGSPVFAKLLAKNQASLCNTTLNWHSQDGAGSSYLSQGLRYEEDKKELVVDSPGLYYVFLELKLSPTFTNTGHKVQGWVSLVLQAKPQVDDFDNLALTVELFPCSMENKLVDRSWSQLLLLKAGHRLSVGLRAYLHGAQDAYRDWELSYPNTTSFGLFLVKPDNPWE

T2: mouse GITR (R&D Systems, biotinylated) (mouse, UniProt O35714 22-153, limits assumed, biotinylated)
T2 sequence (looked up): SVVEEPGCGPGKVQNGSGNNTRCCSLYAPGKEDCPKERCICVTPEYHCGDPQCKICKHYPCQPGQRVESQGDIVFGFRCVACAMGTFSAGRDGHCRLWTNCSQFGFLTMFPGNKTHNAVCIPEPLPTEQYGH

T3: human GITR (human, UniProt Q9Y5U5 26-161, limits assumed)
T3 sequence (looked up): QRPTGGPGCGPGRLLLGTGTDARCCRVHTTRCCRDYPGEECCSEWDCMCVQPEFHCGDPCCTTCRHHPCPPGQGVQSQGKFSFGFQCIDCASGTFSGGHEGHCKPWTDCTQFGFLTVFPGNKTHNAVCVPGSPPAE

T4: human OX40 (human, UniProt P43489 29-216)
T4 sequence (looked up): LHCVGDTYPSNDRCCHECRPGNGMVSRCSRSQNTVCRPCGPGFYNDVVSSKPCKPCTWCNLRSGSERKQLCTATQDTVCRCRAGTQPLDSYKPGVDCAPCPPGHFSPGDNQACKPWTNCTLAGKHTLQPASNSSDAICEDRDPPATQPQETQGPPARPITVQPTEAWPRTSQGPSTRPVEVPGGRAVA

T5: cCD137-mFc-Avi (cynomolgus; mouse)
T5 construct: also called cynomolgus CD137-mFc-Avi; Cyno CD137-mFc-Avi; not shown: mouse IgG2a Fc domain (mIgG2a Fc)
T5 chain: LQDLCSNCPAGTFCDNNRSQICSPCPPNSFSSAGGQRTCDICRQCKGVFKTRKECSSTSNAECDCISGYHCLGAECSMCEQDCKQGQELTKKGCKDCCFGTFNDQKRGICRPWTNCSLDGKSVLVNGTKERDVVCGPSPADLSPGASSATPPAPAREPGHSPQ

B1: mCD137-mFc-Avi (Fc fusion)
chain: VQNSCDNCQPGTFCRKYNPVCKSCPPSTFSSIGGQPNCNICRVCAGYFRFKKFCSSTHNAECECIEGFHCLGPQCTRCEKDCRPGQELTKQGCKTCSLGTFNDQNGTGVCRPWTNCSLDGRSVLKTGTTEKDVVCGPPVVSFSPSTTISVTPEGGPGGHSLQVL
notes: also called mouse CD137-mFc-Avi; mouse dimeric CD137; not shown: mouse IgG2a Fc domain (mIgG2a Fc)
B2: FS22m-063 in HeID1.3 mock mAb^2 format (bispecific antibody)
heavy: QVQLQESGPGLVRPSQTLSLTCTVSGSTFSGYGVNWVRQPPGRGLEWIGMIWGDGNTDYNSALKSRVTMLVDTSKNQFSLRLSSVTAADTAVYYCARERDYRLDYWGQGSLVTVSSASTKGPSVFPLAPSSKSTSGGTAALGCLVKDYFPEPVTVSWNSGALTSGVHTFPAVLQSSGLYSLSSVVTVPSSSLGTQTYICNVNHKPSNTKVDKKVEPKSCDKTHTCPPCPAPELLGGPSVFLFPPKPKDTLMISRTPEVTCVVVDVSHEDPEVKFNWYVDGVEVHNAKTKPREEQYNSTYRVVSVLTVLHQDWLNGKEYKCKVSNKALPAPIEKTISKAKGQPREPQVYTLPPSRDEPYWSYVSLTCLVKGFYPSDIAVEWESNGQPENNYKTTPPVLDSDGSFFLYSKLTVMNYRWELGNVFSCSVMHEALHNHYTQKSLSLSPG
light: DIQMTQSPASLSASVGETVTITCRASGNIHNYLAWYQQKQGKSPQLLVYNAKTLADGVPSRFSGSGSGTQYSLKINSLQPEDFGSYYCQHFWSTPRTFGGGTKLEIKRTVAAPSVFIFPPSDEQLKSGTASVVCLLNNFYPREAKVQWKVDNALQSGNSQESVTEQDSKDSTYSLSSTLTLSKADYEKHKVYACEVTHQGLSSPVTKSFNRGEC
notes: anti-mouse CD137 Fcab
B3: FS22-053-017 in HeID1.3 mock mAb^2 format (bispecific antibody)
heavy: QVQLQESGPGLVRPSQTLSLTCTVSGSTFSGYGVNWVRQPPGRGLEWIGMIWGDGNTDYNSALKSRVTMLVDTSKNQFSLRLSSVTAADTAVYYCARERDYRLDYWGQGSLVTVSSASTKGPSVFPLAPSSKSTSGGTAALGCLVKDYFPEPVTVSWNSGALTSGVHTFPAVLQSSGLYSLSSVVTVPSSSLGTQTYICNVNHKPSNTKVDKKVEPKSCDKTHTCPPCPAPELLGGPSVFLFPPKPKDTLMISRTPEVTCVVVDVSHEDPEVKFNWYVDGVEVHNAKTKPREEQYNSTYRVVSVLTVLHQDWLNGKEYKCKVSNKALPAPIEKTISKAKGQPREPQVYTLPPSRDELNPPYLFSNQVSLTCLVKGFYPSDIAVEWESNGQPENNYKTTPPVLDSDGSFFLYSKLTVYHWRWLEGNVFSCSVMHEALHNHYTQKSLSLSPG
light: B2 light
notes: FS22-053-014 with D98E (IMGT, CH3); range 1-339 derived by counting; also called FS22-053-17
B4: FS22-053-014/HeID1.3 (bispecific antibody, human IgG1, kappa)
heavy: B3 heavy with E423D
light: B2 light
notes: mock mAb^2; also called FS22-053-014 (mock mAb^2 format); FS22-053-14

Positions count from the first letter of the chain named. Names may count otherwise.

Assay [1] concerns the target T1, mouse CD137 ligand on DO11.10 cells. Briefly: flow cytometry, anti mouse Fc detection. How it is done:
In more detail, materials from the same production lot were mixed together and analysed for stability and purity by size-exclusion high-performance liquid chromatography (SE-HPLC), SDS polyacrylamide gel electrophoresis (SDS-PAGE), and size-exclusion chromatography with multi-angle light scattering (SEC-MALS). […] Cells were incubated with the CD137 antigens for 1 hour, and then a fluorescently-labelled anti mouse Fc fragment antibody was used to detect cell binding.

For assay [2], the target named is T6, mouse CD137, cell-surface (mouse, UniProt P20334 24-256). Briefly: cell-based or functional assay.
The target of assay [3] is T6, mouse CD137, cell-surface. Kind of assay: cell-based or functional assay. The source holds these as a separate data set.
The target of assay [4] is mouse CD40 (R&D Systems, biotinylated) (mouse, UniProt P27512 24-193, limits assumed, biotinylated). Briefly: BLI (Octet), biotinylated receptor on streptavidin sensors. How it is done:
(§1) The specificity of the anti-mouse CD137 Fcabs for mouse CD137 was tested in HeID1.3 “mock” mAb² format and measured by BLI in an Octet QKe system by testing for binding of the Fcabs to other mouse TNFRSF receptors (CD40, OX40, GITR). […] Anti-mouse CD137 Fcabs in mock mAb² format were diluted 1:1 in kinetic buffer (PALL 18-1092) to a final concentration of at least 1 μM. Antigen-coated sensors were dipped into the mAb² solutions for 180 seconds followed by 180 seconds in 1×kinetic buffer. Antibodies for each of the TNFRSF receptors were used as positive controls.

Assay [5] deals with T2, mouse GITR (R&D Systems, biotinylated). The description is as above. How it is done:
as §1

In assay [6] the target is B1. Kind of assay: SPR (Biacore T200).
Assay [7] deals with T3, human GITR. Kind of assay: SPR, receptor amine-coupled to CM5 (~1000 RU). How it is done:
(§2) The specificity of the anti-human CD137 Fcabs for human CD137 compared to other related TNFSFR family members was tested. 8 of the Fcabs were tested in mock mAb² (HeID1.3) format and measured by SPR in a Biacore T200 (GE Healthcare) by testing for binding to other human TNFRSF receptors: CD40, OX40 and GITR. Amine coupling (amine coupling kit, GE Healthcare, BR-1000-50) was used to coat human CD40, GITR and OX40 to approximately 1000 RU in Biacore CM5 chips (GE Healthcare, cat no 29149603). […] The chip was regenerated by injection of 10 mM glycine pH 2.5 for 12 s at 30 μl/min. Antibodies specific to the different TNFRSF members were used as positive controls to verify Biacore chip coating. Data was double reference subtracted and analysed using BIAevaluation 3.2 software.

Assay [8] concerns the target human CD40 (human, UniProt P25942 21-193, limits assumed). Briefly: SPR, receptor amine-coupled to CM5 (~1000 RU). How it is done: as §2
For assay [9], the target named is T4, human OX40. Kind of assay: SPR, receptor amine-coupled to CM5 (~1000 RU). How it is done: as §2
The target in assay [10] is B1. Briefly: SPR, mAb^2 captured by anti-human Fab, antigen in flow, 1:1 Langmuir fit. How it is done:
(§3) An anti-human Fab capture antibody was immobilised on all four flow cells of a CM5 series S chip (GE Healthcare #BR-1005-30) to an average surface density of 6000 RU following the manufacturer's recommendations (GE Healthcare, human Fab capture Kit, #28958325). […] Each mAb² was captured to approximately 150 RU by injecting a 3 μg/ml solution of mAb² diluted in HBS-EP+ buffer (GE Healthcare #BR1006-69) for 60 seconds at 30 μl/min. Then different concentrations of human, cyno or mouse CD137 antigen (unbiotinylated human, cyno or mouse CD137-mFc-Avi or human CD137-Avi-His) in HBS-EP+ buffer were flowed over the chip for 3 min at 60 μl/min and then allowed to dissociate for 10 minutes. After each antigen concentration the chip was regenerated by infecting 10 mM glycine pH 2.1 at a flow rate of 30 μl/min for 30 seconds. Buffer HBS-EP+ was injected before the highest concentration of antigen and after the lowest concentration of antigen for reference subtraction, and one of the concentrations at random was repeated twice. The binding kinetics were fit with a 1:1 Langmuir model to generate equilibrium binding constants (KD) for each sample. Data analysis was performed with BiaEvaluation software version 3.2.

The target in assay [11] is T7, hCD137-mFc-Avi (human; mouse, UniProt Q07011 24-186, biotin on the Avi sequence where the biotinylated form was used).
T7 construct: also called human CD137-mFc-Avi; dimeric human CD137; not shown: mouse IgG2a Fc domain (mIgG2a Fc)
The description is as above. How it is done:
as §3

Assay [12] concerns the target T8, hCD137-Avi-His (human, UniProt Q07011 24-186).
T8 construct: also called human CD137-Avi-His; monomeric human CD137
Described as above. How it is done: as §3

The target in assay [13] is T5, cCD137-mFc-Avi. The assay is described as above. How it is done:
as §3

Chain of mouse CD40 (R&D Systems, biotinylated) (P27512 24-193 limits assumed): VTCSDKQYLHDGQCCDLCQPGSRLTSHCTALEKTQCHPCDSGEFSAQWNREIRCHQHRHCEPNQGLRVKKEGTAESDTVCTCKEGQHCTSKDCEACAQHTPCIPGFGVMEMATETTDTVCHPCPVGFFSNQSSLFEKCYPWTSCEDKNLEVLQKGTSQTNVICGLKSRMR
Chain of human CD40 (P25942 21-193 limits assumed): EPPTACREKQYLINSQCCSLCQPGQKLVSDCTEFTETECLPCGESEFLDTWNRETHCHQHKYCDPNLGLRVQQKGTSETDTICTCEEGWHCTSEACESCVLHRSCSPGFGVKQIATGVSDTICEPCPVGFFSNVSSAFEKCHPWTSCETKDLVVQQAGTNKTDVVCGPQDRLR
T8 sequence (Q07011 24-186): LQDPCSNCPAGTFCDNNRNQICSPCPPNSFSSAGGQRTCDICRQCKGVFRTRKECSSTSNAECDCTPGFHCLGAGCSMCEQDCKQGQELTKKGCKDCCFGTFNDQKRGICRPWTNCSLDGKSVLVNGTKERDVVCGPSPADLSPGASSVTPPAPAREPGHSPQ
T7 sequence (Q07011 24-186): as above

On to B1, for which, in assay [1], the binding result is listed as “binds”.
Regarding B2, in assay [2], the “+XL EC50 (nM), mouse CD137 DO11.10 T cell activation assay” value (“+XL EC50 (nM)” below) was 0.39 nM and the “+XL Emax (IL-2 pg/ml), mouse CD137 DO11.10 T cell activation assay” value (shortened to “+XL Emax (IL-2 pg/ml)”) is 24200 pg/mL. Besides, in assay [3], the “EC50 upon Protein L crosslinking, NF-κB luciferase assay (HEK.FRT.luc.mCD137)” value amounted to 1.44 nM and the “fold-change in activity upon crosslinking, NF-κB luciferase assay (HEK.FRT.luc.mCD137)” value is 27 fold. The binding result in [4] is reported as “no binding (tested: at least 1 µM)”. For the same molecule, the binding result in assay [5] is given as “no binding (tested: at least 1 µM)”.
As to B3, in assay [2], the “+XL EC50 (nM)” value was determined as 16.7 nM and the “+XL Emax (IL-2 pg/ml)” value came out at 41000 pg/mL. For the same molecule, the “fold decrease in binding strength against FS22-053-014” value in assay [6] turned out to be 2 fold.
As to B4, in [2], the “+XL EC50 (nM)” value was determined as 2.04 nM. Also, in assay [2], the “+XL Emax (IL-2 pg/ml)” value amounted to 28100 pg/mL. Also, the binding result in assay [7], in assay [8] and in [9] was “no binding (tested: 1 µM)” throughout. Further, the Kd in assay [10] was 24 nM; in [11], 3.2 nM; in assay [13], 0.9 nM. For the same molecule, in assay [12], the “Human monomeric CD137 KD fold difference relative to human dimeric KD” value amounted to 100 fold.
